Reference: publication PMC10985467 (Molecular Cancer Therapeutics, 2024)

Biological target: CD22 on human lymphoma and leukemia cell lines (Homo sapiens (Human)., UniProt P20273)
Experiment: cell-based or functional assay

Sequence of CD22 on human lymphoma and leukemia cell lines (P20273 20-847): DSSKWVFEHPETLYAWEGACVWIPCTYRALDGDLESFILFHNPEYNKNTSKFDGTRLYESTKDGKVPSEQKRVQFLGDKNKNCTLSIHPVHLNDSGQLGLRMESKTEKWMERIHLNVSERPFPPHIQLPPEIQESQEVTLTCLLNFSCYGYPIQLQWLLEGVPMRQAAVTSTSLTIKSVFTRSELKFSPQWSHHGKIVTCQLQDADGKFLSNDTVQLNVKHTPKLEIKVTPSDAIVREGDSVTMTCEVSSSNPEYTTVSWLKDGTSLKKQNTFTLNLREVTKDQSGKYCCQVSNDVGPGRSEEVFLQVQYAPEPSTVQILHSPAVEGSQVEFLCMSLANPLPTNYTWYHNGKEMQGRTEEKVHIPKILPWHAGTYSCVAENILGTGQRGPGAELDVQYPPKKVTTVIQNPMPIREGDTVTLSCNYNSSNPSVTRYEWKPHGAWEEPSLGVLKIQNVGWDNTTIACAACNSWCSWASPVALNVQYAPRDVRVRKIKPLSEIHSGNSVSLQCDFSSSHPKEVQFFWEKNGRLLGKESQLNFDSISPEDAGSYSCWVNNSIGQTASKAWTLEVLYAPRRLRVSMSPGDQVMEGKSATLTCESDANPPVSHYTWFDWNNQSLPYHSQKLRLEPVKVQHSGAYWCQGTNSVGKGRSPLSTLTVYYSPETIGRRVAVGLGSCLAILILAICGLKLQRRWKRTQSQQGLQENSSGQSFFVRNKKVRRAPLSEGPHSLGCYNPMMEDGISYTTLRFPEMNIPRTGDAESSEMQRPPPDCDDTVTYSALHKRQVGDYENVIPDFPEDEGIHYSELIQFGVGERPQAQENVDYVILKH

B1: ADCT-602 (hLL2-C220 site-specifically conjugated to the PBD dimer payload tesirine, SG3249) (antibody, V domains shown)
VH: QVQLVQSGAEVKKPGSSVKVSCKASGYTFTSYWLHWVRQAPGQGLEWIGYINPRNDYTEYNQNFKDKATITADESTNTAYMELSSLRSEDTAFYFCARRDITTFYWGQGTLVTVSS
VL: DIQLTQSPSSLSASVGDRVTMSCKSSQSVLYSANHKNYLAWYQQKPGKAPKLLIYWASTRESGVPSRFSGSGSGTDFTFTISSLQPEDIATYYCHQYLSSWTFGQGTKVEIK
- IC50 of in vitro cytotoxicity (MTS, 96 hours), DO HH-2 cells: 0.06 nmol/L
- IC50 of in vitro cytotoxicity (MTS, 96 hours), Daudi cells: 0.07 nmol/L
- IC50 of in vitro cytotoxicity (MTS, 96 hours), GRANTA-519 cells: 0.02 nmol/L
- IC50 of in vitro cytotoxicity (MTS, 96 hours), MEC-2 cells: 0.18 nmol/L
- IC50 of in vitro cytotoxicity (MTS, 96 hours), NALM-6 cells: 0.11 nmol/L
- IC50 of in vitro cytotoxicity (MTS, 96 hours), NAMALWA cells: 2.27 nmol/L
- IC50 of in vitro cytotoxicity (MTS, 96 hours), REH cells: 0.05 nmol/L
- IC50 of in vitro cytotoxicity (MTS, 96 hours), Ramos cells: 0.06 nmol/L
